PMC7921601

Tests used:
[1] = biological target: AF488-αBc_(C176) (human alphaB-crystallin with an additional C-terminal cysteine, labelled with Alexa Fluor 488) (human); assay: single-molecule TIRF with photobleaching step analysis; αBcC176 in the absence of CLIC1C24, with or without cross-linking, diluted for TIRF microscopy; size of the oligomers
[2] = biological target: AF647-CLIC1C24 (CLIC1 W23F, C59A, C89A, C178A, C191A, C223A, labelled with Alexa Fluor 647 at C24) (UniProt O00299); assay: two-colour single-molecule TIRF colocalisation with photobleaching step analysis; AF647-CLIC1C24 (1 μM) with AF488-αBcC176 (2 μM) at 37 °C in 50 mM phosphate buffer pH 7.4; early timepoints (0.25-0.5 h); diluted 1:1000, CLIC1 held by an anti-6X His-tag antibody; conditions: scale: αBc subunits per CLIC1 subunit
[3] = biological target: AF647-CLIC1C24 (CLIC1 W23F, C59A, C89A, C178A, C191A, C223A, labelled with Alexa Fluor 647 at C24) (UniProt O00299); assay: two-colour single-molecule TIRF colocalisation with photobleaching step analysis; AF647-CLIC1C24 (1 μM) with AF488-αBcC176 (2 μM) at 37 °C in 50 mM phosphate buffer pH 7.4; later timepoints (1-10 h); diluted 1:1000, CLIC1 held by an anti-6X His-tag antibody; with or without cross-linking before dilution
[4] = biological target: AF555-CLIC1C24 (CLIC1 W23F, C59A, C89A, C178A, C191A, C223A, labelled with Alexa Fluor 555 at C24) (UniProt O00299); assay: FRET or BRET; single-molecule FRET by TIRF microscopy; AF555-CLIC1C24 (1 μM) with AF647-αBcC176 (2 μM) for 20 h at 37 °C in 50 mM phosphate buffer pH 7.4, diluted 1:1000, CLIC1 held on the coverslip by an anti-6X His-tag antibody; imaged at about 20 °C

Row | stoichiometry N [1] | stoichiometry N [2] | percent of CLIC1C24 colocalized with αBcC176 (maximum, after 4 h) [3] | FRET efficiency (E) [4] | Substance
1 | < 10 subunits | 1 | 50% |  | AF488-αBc_(C176) (human alphaB-crystallin with an additional C-terminal cysteine, labelled with Alexa Fluor 488) (natural protein)
2 |  |  |  | 0.8 to 1 | AF647-αBc_(C176) (human alphaB-crystallin with an additional C-terminal cysteine, labelled with Alexa Fluor 647) (natural protein)
